Assay results reported in publication PMC1931592.

Columns and labels:
[1] = target: Recombinant human caspase-9 (active) (human) (UniProt P55211); experiment: enzyme inhibition assay (fluorogenic substrate cleavage); one unit of active recombinant human caspase incubated with various concentrations of peptide inhibitor in 100 mM NaCl, 50 mM HEPES, 10 mM DTT, 1 mM EDTA, 10% glycerol, 0.1% CHAPS, pH 7.4, 37°C, 30 min; then 200 μM substrate (Ac-DEVD-MCA for caspases-3 and -7, Ac-IETD-MCA for caspase-8, Ac-LEHD-MCA for caspase-9); apparent Ki = IC50/(1+[S]/Km)
[2] = target: T1, substituted (S209A) active caspase-3 generated by coexpression of HA-p17 and HA-p12 (S209A) subunits (human) (UniProt P42574)
T1 sequence 1: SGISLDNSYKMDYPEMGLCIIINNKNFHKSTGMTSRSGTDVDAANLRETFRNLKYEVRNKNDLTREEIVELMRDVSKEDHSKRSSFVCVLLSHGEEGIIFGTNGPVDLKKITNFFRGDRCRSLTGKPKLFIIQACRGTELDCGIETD
T1 sequence 2: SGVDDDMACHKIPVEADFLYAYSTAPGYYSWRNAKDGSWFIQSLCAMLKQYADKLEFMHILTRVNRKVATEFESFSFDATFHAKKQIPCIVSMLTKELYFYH

Sequence of Recombinant human caspase-9 (active) (human) (P55211 whole entry): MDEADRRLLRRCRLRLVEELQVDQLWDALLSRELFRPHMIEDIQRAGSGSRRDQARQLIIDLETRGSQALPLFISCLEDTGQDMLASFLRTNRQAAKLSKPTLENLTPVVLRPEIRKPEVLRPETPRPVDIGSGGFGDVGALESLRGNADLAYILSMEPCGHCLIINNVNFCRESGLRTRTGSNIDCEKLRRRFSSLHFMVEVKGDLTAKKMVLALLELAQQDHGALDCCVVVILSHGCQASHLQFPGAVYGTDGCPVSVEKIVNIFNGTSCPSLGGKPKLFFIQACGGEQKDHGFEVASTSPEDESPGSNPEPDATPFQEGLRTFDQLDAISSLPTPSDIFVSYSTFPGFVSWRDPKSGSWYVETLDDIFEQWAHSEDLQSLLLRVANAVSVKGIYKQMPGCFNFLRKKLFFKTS

Row | Substance | Ki [1] [nM] | cleavage of Ac-DNLD-MCA by in vitro translated S209A active caspase-3, against the wild type (% loss of cleavage activity) [2]
1 | Ac-DEVD-CHO (peptide) | 1.35 | 
2 | Ac-DNLD-CHO (peptide) | > 200 | 
3 | Ac-DNLD-MCA (peptide) |  | > 60
